# Source: paper PMC8910618, “Cognate DNA Recognition by Engrailed Homeodomain Involves A Conformational Change Controlled via An Electrostatic-Spring-Loaded Latch”
# T1: engrailed homeodomain (enHD) (UniProt P02836 456-509)
# T1 sequence: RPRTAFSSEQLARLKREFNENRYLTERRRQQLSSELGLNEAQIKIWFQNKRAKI
# Key:
# Conditions in all cases: protein: recombinant; tags: none (untagged, or SUMO/His tag cleaved by ULP1); 15N or 13C,15N labelled for NMR; 5' overhang 1 nt on each strand, 20 bp
# [1] = molecular target: T1, engrailed homeodomain (enHD); assay: NMR titration (1H-15N HSQC, A460 and A507); 300 mM NaCl, 20 mM acetate pH 4, 298 K; NMR: 200 uM enHD, 298 K, 5% D2O; 20 mM MES pH 6 + 25 mM NaCl; 20 mM acetate pH 4 + 300 or 700 mM NaCl; 25 mM phosphate pH 6.8 + 50 mM NaCl. CD: 15 uM enHD and DNA, 20 mM MES pH 6, 25 mM NaCl, room temperature
# [2] = molecular target: T1, engrailed homeodomain (enHD); assay: NMR titration (1H-15N HSQC, R456 side-chain NH); 700 mM NaCl, 20 mM acetate pH 4, 298 K; NMR: 200 uM enHD, 298 K, 5% D2O; 20 mM MES pH 6 + 25 mM NaCl; 20 mM acetate pH 4 + 300 or 700 mM NaCl; 25 mM phosphate pH 6.8 + 50 mM NaCl. CD: 15 uM enHD and DNA, 20 mM MES pH 6, 25 mM NaCl, room temperature
# [3] = molecular target: T1, engrailed homeodomain (enHD); assay: NMR titration (1H-15N HSQC, W501 and A460); 50 mM NaCl, 25 mM phosphate pH 6.8, 298 K; stated as sub-uM, too tight to evaluate Kd; NMR: 200 uM enHD, 298 K, 5% D2O; 20 mM MES pH 6 + 25 mM NaCl; 20 mM acetate pH 4 + 300 or 700 mM NaCl; 25 mM phosphate pH 6.8 + 50 mM NaCl. CD: 15 uM enHD and DNA, 20 mM MES pH 6, 25 mM NaCl, room temperature
binder,measurement,setting,value
cognate DNA (same as X-ray structure) (dsDNA) DNA 1: TTTTGCCATGTAATTACCTAA DNA 2: ATTAGGTAATTACATGGCAAA,Kd,[1],95 ± 20 µM
same,Kd,[2],170 ± 2 µM
same,Kd,[3],< 1 µM
